Measured values reported in patent US20250320312A1 (OXITOPE PHARMA B V, published 2025).

B1: PcOxP_DB04_F01 (scFv, V domains shown)
VH: EVQLLESGGGLVQPGGSLRLSCAASGFTFSPFYMEWVRQAPGKGLEWVAASRNKANDYTTEYADSVKGRFTISRDNSKNTLYLQMNSLRAEDTAVYYCARDYYGSSYWYFDVWGQGTLVTVSS
VL: DIVMTQSPDSLAVSLGERATINCTASESLYSSKHKVHYLAWYQQKPGQPPKLLIYGASNRYIGVPDRFSGSGSGTDFTLTISSLQAEDVAVYYCAQFYEYPLTFGGGTKVEIK
notes: scFv in periplasmic extract
B2: PcOxP_DB04_B06 (scFv, V domains shown)
VH: EVQLLESGGGLVQPGGSLRLSCAASGFTFSDAYMEWVRQAPGKGLEWVAASRNKANDYTTEYADSVKGRFTISRDNSKNTLYLQMNSLRAEDTAVYYCARDYYGSSYWYFDVWGQGTLVTVSS
VL: DIQMTQSPSSLSASVGDRVTITCTASESLYSSKHKVHYLAWYQQKPGKAPKLLIYGASNRYIGVPSRFSGSGSGTDFTLTISSLQPEDFATYYCAQFYDYPLTFGGGTKVEIK
notes: scFv in periplasmic extract
B3: PcOxP_DB04_A10 (scFv, V domains shown)
VH: EVQLLESGGGLVQPGGSLRLSCAASGDTFSDFYMEWVRQAPGKGLEWVAASRNKWNDYTTEYADSVKGRFTISRDNSKNTLYLQMNSLRAEDTAVYYCARDYYGSSYWYFDVWGQGTLVTVSS
VL: DIQMTQSPSSLSASVGDRVTITCTASESLYSSKHKVHYLAWYQQKPGKAPKLLIYGASNRQIGVPSRFSGSGSGTDFTLTISSLQPEDFATYYCAQFYSYPLTFGGGTKVEIK
notes: scFv in periplasmic extract
B4: PcOxP_DB03_H08 (scFv, V domains shown)
VH: EVQLLESGGGLVQPGGSLRLSCAASGGTFSDFYMEWVRQAPGKGLEWVAASRNKANTYTTEYADSVKGRFTISRDNSKNTLYLQMNSLRAEDTAVYYCARDYYGSSYWYFDVWGQGTLVTVSS
VL: DIQMTQSPSSLSASVGDRVTITCTASESLYSSKHKVHYLAWYQQKPGKAPKLLIYGSSNRYIGVPSRFSGSGSGTDFTLTISSLQPEDFATYYCAQFYQYPLTFGGGTKVEIK
notes: scFv in periplasmic extract
B5: PcOxP_DB03_H07 (scFv, V domains shown)
VH: EVQLLESGGGLVQPGGSLRLSCAASGFTFSDYYMEWVRQAPGKGLEWVAASRNKANDYTTEYADSVKGRFTISRDNSKNTLYLQMNSLRAEDTAVYYCARDYYGSSYWYFDVWGQGTLVTVSS
VL: DIQMTQSPSSLSASVGDRVTITCTASESLYSSKHKVHYLAWYQQKPGKAPKLLIYGASNRDIGVPSRFSGSGSGTDFTLTISSLQPEDFATYYCGQFYSYPLTFGGGTKVEIK
notes: scFv in periplasmic extract
B6: PcOxP_DB04_G01 (scFv, V domains shown)
VH: EVQLLESGGGLVQPGGSLRLSCAASGFTFSDYYMEWVRQAPGKGLEWVAASRNKWNDYTTEYADSVKGRFTISRDNSKNTLYLQMNSLRAEDTAVYYCARDYYLSSYWYFDVWGQGTLVTVSS
VL: DIVMTQSPDSLAVSLGERATINCKASQSVLSSKNNVNYLAWYQQKPGQPPKLLIYGASNRYIGVPDRFSGSGSGTDFTLTISSLQAEDVAVYYCAQFYQYPLTFGGGTKVEIK
notes: scFv in periplasmic extract
B7: PcOxP_DB04_A07 (scFv, V domains shown)
VH: EVQLLESGGGLVQPGGSLRLSCAASGFTQSDFYMEWVRQAPGKGLEWVAASRNKANDYTTEYADSVKGRFTISRDNSKNTLYLQMNSLRAEDTAVYYCARDYYGSSYWYFDVWGQGTLVTVSS
VL: DIQMTQSPSSLSASVGDRVTITCTASESLYSSKHKVHYLAWYQQKPGKAPKLLIYGISNRYIGVPSRFSGSGSGTDFTLTISSLQPEDFATYYCAQFYSYPLTFGGGTKVEIK
notes: scFv in periplasmic extract
B8: PcOxP_DB04_G08 (scFv, V domains shown)
VH: EVQLLESGGGLVQPGGSLRLSCAASGFTGSDFYMEWVRQAPGKGLEWVAASRNKANDYTTEYADSVKGRFTISRDNSKNTLYLQMNSLRAEDTAVYYCARDYYGSSYWYFDVWGQGTLVTVSS
VL: DIVMTQSPDSLAVSLGERATINCTASESLYSSKHKVHYLAWYQQKPGQPPKLLIYGASNRYQGVPDRFSGSGSGTDFTLTISSLQAEDVAVYYCAQFYWYPLTFGGGTKVEIK
notes: scFv in periplasmic extract
B9: PcOxP_DB03_G10 (scFv, V domains shown)
VH: EVQLLESGGGLVQPGGSLRLSCAASGFTFSDAYMEWVRQAPGKGLEWVAASRNKANDYTTEYADSVKGRFTISRDNSKNTLYLQMNSLRAEDTAVYYCARDYYGSSYWYFDVWGQGTLVTVSS
VL: DIQMTQSPSSLSASVGDRVTITCTASESLYSSKHKVHYLAWYQQKPGKAPKLLIYGASNRQIGVPSRFSGSGSGTDFTLTISSLQPEDFATYYCAQFYTYPLTFGGGTKVEIK
notes: scFv in periplasmic extract
B10: PcOxP_DB04_A09 (scFv, V domains shown)
VH: EVQLLESGGGLVQPGGSLRLSCAASGFTFSDYYMEWVRQAPGKGLEWVAASRNKWNDYTTEYADSVKGRFTISRDNSKNTLYLQMNSLRAEDTAVYYCARDYYGSSYWYFDVWGQGTLVTVSS
VL: DIQMTQSPSSLSASVGDRVTITCTAEESLYSSKHKVHYLAWYQQKPGKAPKLLIYGASNLYSGVPSRFSGSGSGTDFTLTISSLQPEDFATYYCAQFYSYPLTFGGGTKVEIK
notes: scFv in periplasmic extract
B11: PcOxP_DB04_G09 (scFv, V domains shown)
VH: EVQLLESGGGLVQPGGSLRLSCAASGNTFSDFYMEWVRQAPGKGLEWVAASRNKWNDYTTEYADSVKGRFTISRDNSKNTLYLQMNSLRAEDTAVYYCARDYYGSSYWYFDVWGQGTLVTVSS
VL: DIVMTQSPDSLAVSLGERATINCTASESLYSSKHKVHYLAWYQQKPGQPPKLLIYGASNRYIGVPDRFSGSGSGTDFTLTISSLQAEDVAVYYCAQFYSYPLTFGGGTKVEIK
notes: scFv in periplasmic extract
B12: PcOxP_DB03_H09 (scFv, V domains shown)
VH: EVQLLESGGGLVQPGGSLRLSCAASGFTFSDAYMEWVRQAPGKGLEWVAASRNKANSYTTEYADSVKGRFTISRDNSKNTLYLQMNSLRAEDTAVYYCARDYYGSSYWYFDVWGQGTLVTVSS
VL: DIQMTQSPSSLSASVGDRVTITCTASESLYSSKHKVHYLAWYQQKPGKAPKLLIYGASNRYIGVPSRFSGSGSGTDFTLTISSLQPEDFATYYCAEFYSYPLTFGGGTKVEIK
notes: scFv in periplasmic extract
B13: PcOxP_DB04_A12 (scFv, V domains shown)
VH: EVQLLESGGGLVQPGGSLRLSCAASGFTFSDGYMEWVRQAPGKGLEWVAASRNKWNDYTTEYADSVKGRFTISRDNSKNTLYLQMNSLRAEDTAVYYCARDYYGSSYWYFDVWGQGTLVTVSS
VL: DIQMTQSPSSLSASVGDRVTITCTASESLYSSKHKVHYLAWYQQKPGKAPKLLIYGASNRYDGVPSRFSGSGSGTDFTLTISSLQPEDFATYYCAQFYSYPLTFGGGTKVEIK
notes: scFv in periplasmic extract
B14: PcOxP_DB04_F05 (scFv, V domains shown)
VH: EVQLLESGGGLVQPGGSLRLSCAASGFTFSDYYMEWVRQAPGKGLEWVAASRNKANDYTTEYADSVKGRFTISRDNSKNTLYLQMNSLRAEDTAVYYCARDYYGSSYWYFDVWGQGTLVTVSS
VL: DIVMTQSPDSLAVSLGERATINCTASESLYSSNHKVHYLAWYQQKPGQPPKLLIYGVSNRYIGVPDRFSGSGSGTDFTLTISSLQAEDVAVYYCAQFYSYPLTFGGGTKVEIK
notes: scFv in periplasmic extract
B15: PcOxP_DB04_F03 (scFv, V domains shown)
VH: EVQLLESGGGLVQPGGSLRLSCAASGFTASDFYMEWVRQAPGKGLEWVAASRWKANDYTTEYADSVKGRFTISRDNSKNTLYLQMNSLRAEDTAVYYCARDIYGSSYWYFDVWGQGTLVTVSS
VL: DIVMTQSPDSLAVSLGERATINCTASESLYSSKHKVHYLAWYQQKPGQPPKLLIYGASNRYIGVPDRFSGSGSGTDFTLTISSLQAEDVAVYYCAQFYSYPLTFGGGTKVEIK
notes: scFv in periplasmic extract
B16: PcOxP_DB04_G03 (scFv, V domains shown)
VH: EVQLLESGGGLVQPGGSLRLSCAASGFTTSDFYMEWVRQAPGKGLEWVAASRNKANDYTTEYADSVKGRFTISRDNSKNTLYLQMNSLRAEDTAVYYCARDYYGSSYWYFDYWGQGTLVTVSS
VL: DIVMTQSPDSLAVSLGERATINCTASESLYSSKHKVHYLAWYQQKPGQPPKLLIYGASNRNIGVPDRFSGSGSGTDFTLTISSLQAEDVAVYYCAHFYSYPLTFGGGTKVEIK
notes: scFv in periplasmic extract

Tests used:
Experiment in all cases: scFv ELISA
BSA = BSA (UniProt P02769)
[1] = molecular target: Peptide 1: Biotin-…-[Tyr(PC)]-acid
[2] = molecular target: Peptide 5: Biotin-…-[Tyr(PC)]-acid
[3] = molecular target: T1, Peptide 4: Biotin-AGGGGSGGGGSGGGGSAAA-Tyr-acid (N-terminal biotin; C-terminal acid)
T1 construct: Control peptide without PC
T1 peptide: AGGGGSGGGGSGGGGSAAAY
Summary of the method: (§1)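 Bound scFv was read as OD450 after HRP–anti-V5 detection, TMB development and HCl stop. PPE with BSA was incubated 1 h at RT on BSA-blocked wells coated overnight at 4° C. with peptide, or on streptavidin wells loaded 1 h with biotinylated PC-peptides at 1 μg/mL.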

[4] = molecular target: T2, Peptide 8: Biotin-AEAAAKEAAAKEAAAKEAAAKAAA-Tyr-acid (N-terminal biotin; C-terminal acid)
T2 construct: Control peptide without PC
T2 peptide: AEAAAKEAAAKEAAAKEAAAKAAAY
Summary of the method: as §1

[5] = molecular target: T3, Peptide 4: Biotin-AGGGGSGGGGSGGGGSAAA-Tyr-acid (N-terminal biotin; C-terminal acid; no PC)
T3 construct: control peptide without PC
T3 peptide: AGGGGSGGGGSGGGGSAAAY
Summary of the method: as §1

[6] = molecular target: T4, Peptide 8: Biotin-AEAAAKEAAAKEAAAKEAAAKAAA-Tyr-acid (N-terminal biotin; C-terminal acid; no PC)
T4 construct: control peptide without PC
T4 peptide: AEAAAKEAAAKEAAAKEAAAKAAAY
Summary of the method: as §1

BSA, sequence (P02769 25-607 limits assumed): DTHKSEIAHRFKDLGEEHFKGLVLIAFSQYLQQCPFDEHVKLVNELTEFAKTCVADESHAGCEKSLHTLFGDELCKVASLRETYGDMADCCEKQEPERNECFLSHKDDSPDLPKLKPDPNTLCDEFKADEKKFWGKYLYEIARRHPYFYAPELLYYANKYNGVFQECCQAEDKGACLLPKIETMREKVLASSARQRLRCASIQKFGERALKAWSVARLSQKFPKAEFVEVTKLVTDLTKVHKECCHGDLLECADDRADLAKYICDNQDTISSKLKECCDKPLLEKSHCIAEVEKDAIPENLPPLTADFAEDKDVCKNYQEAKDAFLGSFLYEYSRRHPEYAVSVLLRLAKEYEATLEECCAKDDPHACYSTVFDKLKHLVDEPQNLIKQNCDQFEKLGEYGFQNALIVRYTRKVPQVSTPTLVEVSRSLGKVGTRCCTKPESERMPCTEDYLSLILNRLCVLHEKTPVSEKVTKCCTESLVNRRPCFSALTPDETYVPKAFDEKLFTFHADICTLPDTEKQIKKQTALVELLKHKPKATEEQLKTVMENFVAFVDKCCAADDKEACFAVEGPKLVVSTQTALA

| Binder | OD450 (BSA) [OD450] | OD450 [1] [OD450] | OD450 [2] [OD450] | OD450 [3] [OD450] | OD450 [4] [OD450] | OD450 [5] [OD450] | OD450 [6] [OD450] |
| --- | --- | --- | --- | --- | --- | --- | --- |
| B1 | 0.09 | 0.56 | 0.85 | 0.07 | 0.07 |  |  |
| B2 | 0.1 | 0.66 | 1.06 |  |  | 0.06 | 0.06 |
| B3 | 0.11 | 0.74 | 1.61 |  |  | 0.06 | 0.06 |
| B4 | 0.12 | 0.91 | 1.18 |  |  | 0.06 | 0.06 |
| B5 | 0.08 | 1.91 | 1.64 |  |  | 0.05 | 0.05 |
| B6 | 0.09 | 0.63 | 1.39 | 0.07 | 0.09 |  |  |
| B7 | 0.09 | 1.54 | 2.11 |  |  | 0.05 | 0.05 |
| B8 | 0.07 | 1.39 | 1.67 | 0.05 | 0.05 |  |  |
| B9 | 0.11 | 1.8 | 1.21 |  |  | 0.05 | 0.05 |
| B10 | 0.12 | 1.16 | 1.96 |  |  | 0.06 | 0.06 |
| B11 | 0.08 | 0.48 | 1.08 | 0.05 | 0.06 |  |  |
| B12 | 0.11 | 0.93 | 1.25 |  |  | 0.06 | 0.06 |
| B13 | 0.12 | 0.71 | 1.38 |  |  | 0.07 | 0.06 |
| B14 | 0.07 | 0.76 | 0.97 | 0.06 | 0.05 |  |  |
| B15 | 0.1 | 0.58 | 0.87 | 0.06 | 0.05 |  |  |
| B16 | 0.07 | 0.19 | 0.4 | 0.04 | 0.05 |  |  |
